Laboratory results reported in the DeepSol protein solubility set.

Assay: soluble on expression in E. coli; label from the status in PepcDB or PDB records

Sequence | soluble on expression in E. coli
DQQYVKNFLLLVKSDNPEEQAAATETSIPRKLREMRMASTIDSTLSKDDILTRYLNLVHLGNGAFGVEAAARTYFGKGAPELSLAQSAMFAGIVQSSSYLDPYTNPDAVMDRRNVVLDTMAANGYATPEDVAAAKAEPLGVLEQPQGLPNGCITAGDNGFFCDYVLKYLSEKGLSTDQLTQGSYTINTTLDPDVQQAAHAAAAGQVNSHTFGVANVMNIVEPGKDSRKILAMTSSRDYGLDLDAGQTVLPQPTSLVGNGAGSVFKIFTAAVALQQGYGLDTQLQVPPRYEAKGMGDGGAEGCGAGTYCVENSGSYAPQMSLRDALAFSPNTPFVQMIEKVGVKDVVDTSVKLGLRSYANPGTFNKDNSIADYVKEHNLGSYTLGPTAVNPLELSNVAASLASDGMWCEPSPITTVTDAKGNEVFLDRPACEQAIDPEIAQALSAGLSQDTIKGTGAQAAKSLGFSAPTAAKTGTTESHSS | not soluble
DQVSRFRLLGGNQVRPLAGGDEAYPAMMQAIREARVSIAMQSYIFDCDPIGREMAQALVEAQQRGVQVRVLIDAIGSKYSRPPIVRTLVRGGVRTARFMTNPLGVMRMPYANLRSHRKILVVDGHVGFTGGMNIRAAFVTALAGKAANGDTHFRLEGPVVAQLMAVFAHDWNFTTRESLEGPTWFPPAPERAPGSVPMRCVASGPDSALGSTHKM | not soluble
DRGRMANIFGANNFYYAKSQAMLYTVSQNADFITAGLVDPVFLPLGNQQRAATHLNEPKSQKILFIVAESWGLPANPELQNATFAKLLAQKDRFSVWESGSFPFIGATVEGEMRELCAYGGLRGFALRRAPDEKFARCLPNRLKQEGYATFAMHGAGSSLYDRFSWYPRAGFQEIKTAENLIGKKTCAIFGGVCDSELFGEVSAFFKKHDKGLFYWMTLTSHADYPESDIFNHRLKCTEYGLPAETDLCRNFSLHTQFFDQLADLIQRPEMKGTEVIIVGDHPPPVGNLNETFRYLKQGHVAWLNFKIK | not soluble
DSKKIVGVFYKANEYATKNPNFLGCVENALGIRDWLESQGHQYIVTDDKEGPDCELEKHIPDLHVLISTPFHPAYVTAERIKKAKNLKLLLTAGIGSDHIDLQAAAAAGLTVAEVTGSNVVSVAEDELMRILILMRNFVPGYNQVVKGEWNVAGIAYRAYDLEGKTIGTVGAGRIGKLLLQRLKPFGCNLLYHDRLQMAPELEKETGAKFVEDLNEMLPKCDVIVINMPLTEKTRGMFNKELIGKLKKGVLIVNNARGAIMERQAVVDAVESGHIGGYSGDVWDPQPAPKDHPWRYMPNQAMTPHTSGTTIDAQLRYAAGTKDMLERYFKGEDFPTENYIVKDGELAPQYR | soluble
DSLGWSNVDVLDRICEAYGFSQKIQLANHFDIASSSLSNRYTRGAISYDFAAHCALETGANLQWLLTGEGEAFVNNRESSDAKRIEGFTLSEEILKSDKQLSVDAQFFTKPLTDGMAIRSEGKIYFVDKQASLSDGLWLVDIKGAISIRELTKLPGRKLHVAGGKVPFECGIDDIKTLGRVVGVYSEVN | soluble
DVQLQESGTVLARPGASVKMSCKASGYSFTSYWMHWIKQRPGQGLEWIGGVYPGDSHTSYNQKFKGKAKLTAVTSASTAYMELSSLTNEDSAVYYCTRSGFDYGNEDWGQGTTLTVSSAKTTPPSVYPLAPGSAAQTNSMVTLGCLVKGYFPEPVTVTWNSGSLSSGVHTFPAVLQSDLYTLSSSVTVPSSPRPSETVTCNVAHPASSTKVDKKI | soluble
DVQLVESGGGLVQPGGSRKLSCAASGFTFSSFGMHWVRQAPEKGLEWVAYISSGSSTLHYADTVKGRFTISRDNPKNTLFLQMTSLRSEDTGMYYCARWGNYPYYAMDYWGQGTSVTVSSAKTTPPSVYPLAPGSAAQTNSMVTLGCLVKGYFPEPVTVTWNSGSLSSGVHTFPAVLQSDLYTLSSSVTVPSSPRPSETVTCNVAHPASSTKVDKKIVPRDC | soluble
DYKDDDDKDLKCTTNNMRVWDCTWPAPLGVSPGTVKDICIKDRFHSCHPLETTNVKIPALSPGDHEVTINYLNGFQSKFTLNEKDVSLIPETPEILDLSADFFTSSLLLKWNDRGSALPHPSNATWEIKVLQNPRTEPVALVLLNTMLSGKDTVQHWNWTSDLPLQCATHSVSIRWHIDSPHFSGYKEWSDWSPLKNISWIRNTETNVFPQDKVVLAGSNMTICCMSPTKVLSGQIGNTLRPLIHLYGQTVAIHILNIPVSENSGTNIIFITDDDVYGTVVFAGYPPDVPQKLSCETHDLKEIICSWNPGRITGLVGPRNTEYTLFESISGKSAVFHRIEGLTNETYRLGVQMHPGQEIHNFTLTGRNPLGQAQSAVVINVTERVAPHDPTSLKVKDINSTVVTFSWYLPGNFTKINLLCQIEICKANSKKEVRNATIRGAEDSTYHVAVDKLNPYTAYTFRVRCSSKTFWKWSRWSDEKRHLTTEAT | soluble
DYLRQVFPHYKVQKITLNAGFTCPNRDGLKGWGGCTYCNNQTFSPAFAMKDRSVSEQLRDGIAFFARKYPHMKYLAYFQAYTNTYGEQAEIIRKYEEALNYYDVVGIIIGTRPDCMPDSLLSYLKDLSERVFVLVEYGVESTLDATLRRVNRGHLWSDSMAAIERTAKTGLPIGVHLILGLPGESREDILRHADKISALPVTTLKLHQLQIIRGTAMAKEYAESPSD | not soluble
EDFVVSGALNLSLIRERTGFQAKATEDYQTLAGLVMSLLDRLPSTGDSLSWQGWNLQVVGVEERRVTRVLLQKQP | not soluble
EDICFLLADGRVYVAANQSFEPELLLSSSADSRLYVTDRGLFICAENRIYFIEKGRKTTQFPIADVLGVGAMNESNTAYIALGEEGLASLLLAEGSTAEAMPVAFDGPGDNDFYEMRFSHGRLYAASGLWGTNLMGHAGMVKLYDGNRWTNFDKKTVQEQLGGGFSFNDAIDIAVSNGDPDHFFVGTWGNGLFEFKDGKAIARYSGNETAIAECNPGDARVKAIAFDNKGNLWGTLGAVGKNIFMYDPQSSTWHSFSYPDVANLASFGNMIILPNGDKWVNILHRSGGSTRKGVLIFNDRGTPETTSDDSHLYVEQFVNRLGAAIGHKTIYAMAVDHNGSVWMGSDIGIFGVYNAAGVLSSTSTPIAVRPVGGEEPNLYYVLDKVTVTDIVVDKLNHKWVATQGTGLYLLSEDCSKILAQFTVENSPLLSNNILSLALNDDNGLLYIGTADGLMTFQTGTGSGSASELDGVYVYPNPLRPEYPDGVTIAGLQAGCSVKITDTTGRLLYQTESVTTEVKWNARGADGNRVASGVYAVAVYDPVSKKSKLIRFAVIR | not soluble
EDLIFGKRISLDLGYREKALFYSLEEHVALIHPEDHDNFIHCWQLFISSANLKDNFSCTYRLKTSDGQWFWYKDLGKIVAVDANNHPVRVTGSYTNITESRANEERAQYYGDAFQQTQ | not soluble
EELEERLVEWIVVQCGPDVGRPDRGRLGFQVWLKNGVILSKLVNSLYPEGSKPVKVPENPPSMVFKQMEQVAQFLKAAEDYGVIKTDMFQTVDLYEGKDMAAVQRTLMALGSLAVTKNDGNYRGDPNWFMK | soluble
EERFAELFAAVDWISLGGGIHFTAENYPLETFAERLKHFSKTYDVTIFLEPGEAAITKSTTLEVSVLDTLYNEKNLAIVDSSIEAHMLDLLIYRENAKLEQNQGPYEIMVCGKSCLAGDIFGTFRFPEPLKIGDRLSFQDTAGYTMVKKNWFNGVTMPAIVIKECNGALTIQRQFSYNDYQKSLS | not soluble
EFNDKYPDINIDMELDNRFVDIVNERFDLAIRTGMLPDSSLIARKLVDANWVVCASPKYLAKHGIPKQPIELTKHNCLVYSYQETGAREWAFKAGDKMYQVTVDGNLCTNNSSALRN | not soluble
EFPEITEEMEKEIKNVFRNGNQDEVLSEAFRLTITRKDIQTLNHLNWLNDEIINFYMNMLMERSKEKGLPSVHAFNTFFFTKLKTAGYQAVKRWTKKVDVFSVDILLVPIHLGVHWCLAVVDFRKKNITYYDSMGGINNEACRILLQYLKQESIDKKRKEFDTNGWQLFSKKSQEIPQQMNGSDCGMFACKYADCITKDRPINFTQQHMPYFRKRMVWEILHRKLL | soluble
EGGEPCACPHALHRVCGSDGETYSNPCTLNCAKFNGKPELVKVHDGPCEPDEDEDVCQECDGDEYKPVCGSDDITYDNNCRLECASISSSPGVELKHEGPCRT | soluble
EGPLHWESTLTYTSYRDRWKERDPKVILAPYVKENDPVSAIYTLIPDGIKQAGEDTPAMPDLLPGQRKYKDVNGLDEEGNLTGKPDGKIDQADVVYLGTRAPKFTMGFSNDFRYKGFDLNIYLYASVGGYSYPYTQVEHGVYGGNGIQRLKDNNNFLADIKNRWTSDNMSSAMPSGEVNSYDSYGAPNWEKNTYLRLKSVTLGYDLSRLFKADKLKVRFYFSGQNLLTFTGYKGLDPEVENDRASYPQQKTFSFGLDVKF | not soluble
EHRYGHLLGQINWISLGGGIHFTEPGYALDAFCDRLRRFSEQYGVQVYLEPGEAAITNTATLEVTVLDVMRNEKNLAIVDAATEAHMLDLLIYRMSARVQPDQGPHRYVIYGNSCLAGDVFGEFSFESPLQPGSRISIQDAAGYTMVKKNWFNGVRMPAIAIRELDGEIRLVREFGYQD | not soluble
EILPNFFKSARPIEGLRPYTVLETAGRQIYIQEGCYHCHSQLIRPFQAEVDRYGAYSLSGEYAYDRPFLWGSKRIGPDLHRVGDYRTTDWHEKHMFDPKSVVPHSIMPAYKHLFTKKSDFDTAYAEALTQKKVFGVPYDTENGVKLGSVEEAKKAYLEEAKKITADMKDKRVLEAIERGEVLEIVALIAYLNSLGNSRINANQNA | not soluble
EKFVFEGKGDEVIGIEKPGDFVVVLDEVEHEKFVRKGDNLIIQHNIDLSEALCGFVRTISTLDGRTIFYRVLPGEVIAHADVKVIHNEGMPMRRASSDKGDLLVQFDVKFPDKINPDAAKKLADLL | not soluble
EKITILADAIPELHVEEANDKVMGSIDWEAALKQSAGKEDLAQEMLQMLVDFIPEVNEWIDKALESDISEEELCHYIHKLHGSSSYCGVPRLKQLCNLIETSLRQHQTISDIEPELFELQDEMEKVTKDANLLLSN | not soluble
ELQKKIKAADDIFPNQKKNPDKKDNPNVLEVLGEYGGDGFFPTLGNNGLNIPDQVFQSFNNFQIENYKISDFKVDIASERDIVQHDKFRFSYVVN | soluble
ENALIGVNDHTLVTENDGRRWVTREPAIVYFHKKYWFNIIAMIRETGVSYYCNLASPYILDPEALKYIDYDLDVKVFADGEKRLLDVDEYEQHKAQMNYP | not soluble
EPEGKPRAWVLDFKGSMDAHEVNSLREEITAVLAAAKARDQVVIRLESPGGVVHGYGLAASQLQRLRDKQIPLTVSVDKVAASGGYMMACVANKIVSAPFAILGSIGVVAQIPNLHRFLKNKDIDIELHTAGQYKRTLTMLGENTEEGRRKFREDLNETHHLFKDFVHRMRPGLDIEQVATGEHWYGVQALEKGLVD | not soluble
EQMEGMLCRKQEMEAFGKKAANRSWQNVYCVLRRGSLGFYKDAKAASAGVPYHGEVPVSLARAQGSVAFDYRKRKHVFKLGLQDGKEYLFQAKDEAEMSSWLRVVNAAIA | soluble
ERRQGIAGVKGNQLQLMTESDDVMQALIRDIQLARHNIEMVFYIWQPGGMADQVAESLMAAARRGIHCRLMLDSAGSVAFFRSPWPELMRNAGIEVVEALKVNLMRVFLRRMDLRQHRKMIMIDNYIAYTGSMNMVDPRYFKQDAGVGQWIDLMARMEGPIATAMGIIYSCDWEIETGKRILPPPPDVNIMPFEQASGHTIHTIASGPGFPEDLIHQA | not soluble
